Our source for the Kd and stoichiometry N (LARA domain per LdcI protomer) values is publication PMC4145799.

Test [1] addresses LdcI (Escherichia coli) (UniProt P0A9H3). The conditions noted are these: cited from earlier work.
For test [2], the target named is inducible lysine decarboxylase LdcI (Escherichia coli) (UniProt P0A9H3). As to the kind of experiment: cryo-EM structure; LdcI-LARA complex, 7.5 Å; 7.3 µM LdcI with 73 µM LARA (1:10), 15 min at room temperature, 50 mM Mes pH 6.5, 100 mM NaCl, 0.2 mM PLP, 1 mM DTT, 0.01% glutaraldehyde; D5 symmetry imposed.
Chain of inducible lysine decarboxylase LdcI (Escherichia coli) (P0A9H3 whole entry): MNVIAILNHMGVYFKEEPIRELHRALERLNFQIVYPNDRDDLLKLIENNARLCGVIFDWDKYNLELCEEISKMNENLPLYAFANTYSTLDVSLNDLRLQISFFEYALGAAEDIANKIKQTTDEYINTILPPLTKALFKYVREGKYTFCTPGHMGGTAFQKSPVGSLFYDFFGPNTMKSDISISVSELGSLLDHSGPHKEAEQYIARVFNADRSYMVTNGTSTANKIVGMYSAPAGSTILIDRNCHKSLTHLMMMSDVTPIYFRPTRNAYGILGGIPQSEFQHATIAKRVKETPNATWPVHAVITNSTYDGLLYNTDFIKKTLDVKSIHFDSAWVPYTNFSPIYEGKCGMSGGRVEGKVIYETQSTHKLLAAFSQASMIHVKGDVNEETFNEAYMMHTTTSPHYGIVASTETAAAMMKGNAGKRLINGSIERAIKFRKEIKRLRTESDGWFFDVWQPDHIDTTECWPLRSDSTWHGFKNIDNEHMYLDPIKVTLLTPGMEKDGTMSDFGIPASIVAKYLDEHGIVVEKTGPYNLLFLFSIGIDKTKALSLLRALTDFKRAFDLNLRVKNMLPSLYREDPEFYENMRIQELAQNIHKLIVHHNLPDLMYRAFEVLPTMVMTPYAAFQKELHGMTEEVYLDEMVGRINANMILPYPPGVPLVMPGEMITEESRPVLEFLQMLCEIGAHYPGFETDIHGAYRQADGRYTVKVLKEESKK

Chain of RavA (P31473 whole entry): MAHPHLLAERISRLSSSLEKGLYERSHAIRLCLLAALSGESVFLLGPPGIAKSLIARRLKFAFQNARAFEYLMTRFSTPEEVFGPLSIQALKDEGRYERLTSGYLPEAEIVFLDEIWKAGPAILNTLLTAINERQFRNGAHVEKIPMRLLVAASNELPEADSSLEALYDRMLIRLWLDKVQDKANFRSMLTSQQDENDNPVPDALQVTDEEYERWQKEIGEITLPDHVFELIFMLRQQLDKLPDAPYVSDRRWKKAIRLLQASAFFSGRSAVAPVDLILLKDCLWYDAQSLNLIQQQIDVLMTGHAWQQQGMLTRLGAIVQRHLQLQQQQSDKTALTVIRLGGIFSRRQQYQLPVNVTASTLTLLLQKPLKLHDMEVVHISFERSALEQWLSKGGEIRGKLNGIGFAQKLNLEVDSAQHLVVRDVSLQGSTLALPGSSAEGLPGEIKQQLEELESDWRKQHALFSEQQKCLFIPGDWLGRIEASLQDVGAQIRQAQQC
Chain of LdcI (Escherichia coli) (P0A9H3 whole entry): as the sequence (P0A9H3 whole entry) above

Turning to RavA (from UniProt P31473), the Kd in test [1] was 20 nM.

For “LARA domain of RavA (LdcI associating domain of RavA) (from UniProt P31473 1-498) (domain or fragment)”, the stoichiometry N (LARA domain per LdcI protomer) in test [2] was 1.

What is called Kd is the equilibrium constant for the complex coming apart.
